From publication doi:10.1101/2023.12.18.572097 come the findings set out here.

The target of assay [1] is E. coli type I Zorya ZorA, wild type (EcZorA) (E. coli). As to the kind of experiment: cryo-EM structure.
In assay [2] the target is E. coli type I Zorya ZorB, wild type (EcZorB) (E. coli). The assay can be described thus: cryo-EM structure.

What is called stoichiometry N is a count of units in the complex or per binding partner.

The substance “E. coli type I Zorya ZorA, wild type (EcZorA) (natural protein)” showed a stoichiometry N in assay [1] of 5.

For the substance “E. coli type I Zorya ZorB, wild type (EcZorB) (natural protein)”, in assay [2], the stoichiometry N came out at 2.
